From patent US20060078911, “Oxidative DNA damage protection” (published 2006) come the findings set out here.

One data set concerns the target T1, XPG (Homo sapiens, UniProt P28715 P28715:1-1186).
T1 sequence: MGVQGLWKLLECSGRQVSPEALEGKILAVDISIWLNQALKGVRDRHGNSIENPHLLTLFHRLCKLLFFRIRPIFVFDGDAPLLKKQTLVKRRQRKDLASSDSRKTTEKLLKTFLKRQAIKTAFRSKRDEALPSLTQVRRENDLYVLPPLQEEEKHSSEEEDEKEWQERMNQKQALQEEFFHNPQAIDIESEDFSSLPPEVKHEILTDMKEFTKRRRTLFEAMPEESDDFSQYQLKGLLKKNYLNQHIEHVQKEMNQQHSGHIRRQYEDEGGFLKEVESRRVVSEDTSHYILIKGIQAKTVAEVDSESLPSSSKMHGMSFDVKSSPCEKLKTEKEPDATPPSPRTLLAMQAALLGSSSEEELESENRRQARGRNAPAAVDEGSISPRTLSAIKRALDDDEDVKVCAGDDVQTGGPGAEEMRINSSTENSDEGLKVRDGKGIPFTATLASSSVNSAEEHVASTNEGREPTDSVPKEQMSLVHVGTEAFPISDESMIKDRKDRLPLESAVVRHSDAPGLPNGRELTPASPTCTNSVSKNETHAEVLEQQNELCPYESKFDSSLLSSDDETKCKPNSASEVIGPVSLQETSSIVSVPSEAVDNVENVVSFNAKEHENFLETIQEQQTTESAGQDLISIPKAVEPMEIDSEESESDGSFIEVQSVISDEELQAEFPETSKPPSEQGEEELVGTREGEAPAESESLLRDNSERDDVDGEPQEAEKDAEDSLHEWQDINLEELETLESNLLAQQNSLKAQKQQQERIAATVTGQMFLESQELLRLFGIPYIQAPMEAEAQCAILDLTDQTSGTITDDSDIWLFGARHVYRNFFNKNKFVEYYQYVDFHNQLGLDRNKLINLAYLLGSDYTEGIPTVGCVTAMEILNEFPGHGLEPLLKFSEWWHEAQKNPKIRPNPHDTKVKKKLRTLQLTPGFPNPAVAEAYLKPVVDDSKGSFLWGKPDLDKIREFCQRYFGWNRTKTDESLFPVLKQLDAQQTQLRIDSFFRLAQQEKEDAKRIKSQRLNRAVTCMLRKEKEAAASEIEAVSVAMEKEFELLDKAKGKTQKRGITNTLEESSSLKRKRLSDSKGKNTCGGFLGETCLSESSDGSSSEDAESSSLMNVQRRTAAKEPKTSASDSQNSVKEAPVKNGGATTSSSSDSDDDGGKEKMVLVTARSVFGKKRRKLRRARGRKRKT
In words: EMSA; 41 nM XPG gives slowly migrating complex; displaced by PC4; 110 mM KCl, 1 mM EDTA, pH 7.5, room temp. Conditions: tags: expressed in High5 insect cells (pFASTBAC); label: 5'-32P on 10T-strand; duplex with central 10-nt unpaired bubble. The protocol: (§1) 2.5 nM of the 10-nt bubble DNA substrate was incubated with 41 nM of purified XPG (lanes 2-7) or without XPG (lanes 9-13). Reaction mixtures were supplemented with 44 nM (lanes 3 and 9), 88 nM (lanes 4 and 10), 176 nM (lanes 5 and 11), 352 nM (lanes 6 and 12) and 704 nM (lanes 7 and 13) of human PC4 protein, respectively. Samples were loaded onto a 4.5% native gel and electrophoresis was conducted at 150 V for 2 hours at 4° C. The gel was dried and exposed on a phosphorimager screen. No protein was added in lanes 1 and 8.
(§2) The 10T-strand was 5′-end labeled with T4 polynucleotide kinase and [γ-³²P]ATP and annealed with the complementary 10C-strand by heating for 3 minutes at 90° C. and cooled to room temperature. […] The gels were visualized by phosphorimager and analyzed using ImageQuant™ software (Molecular Dynamics).
(§3) To determine if XPG affects PC4 interaction with DNA bubbles, we pre-incubated the 10 bp bubble DNA with XPG and then added PC4 at varying concentrations (FIG. 9A, lanes 3-7). XPG strongly stimulated PC4 binding, with complete binding achieved at the lowest PC4 protein concentration analyzed (44 nM, lane 3) as compared to 352 nM in the absence of XPG Correspondingly, the tetramer-bound complex appears at lower concentrations (352 nM, lane 6) in the presence of XPG In no case did we observe a trimeric complex of XPG, PC4, and DNA. […]
In general terms: In EMSA bound probe runs differently from free probe, usually more slowly.

Data set [1] deals with PC4 (full length wild type) (Homo sapiens, UniProt P53999 SEQ:1-127). The data set can be described thus: EMSA; complete binding at 352 nM PC4 without XPG; second shifted band at 704 nM; 2.5 nM DNA, 110 mM KCl, 1 mM EDTA, poly(dI-dC), pH 7.5, room temp; with XPG (41 nM) present complete binding at 44 nM. Conditions: tags: expressed in E. coli BL21(DE3); chain copies: 2 (inferred); label: 5'-32P on 10T-strand; duplex with central 10-nt unpaired bubble. The procedure:
as §1, §2, §3

B1: 10-nt bubble DNA (10T/10C) (structured_DNA)
DNA 1: GGGCAGACAACGTGGCGCTGTTTTTTTTTTGTGTCCTAGCACAGCGTATG
DNA 2: CATACGCTGTGCTAGGACACCCCCCCCCCCCAGCGCCACGTTGTCTGCCC
Turning to B1, the binding result (with XPG; in data set [1]) was “binds” throughout.
